Target: T1, QKI5 (UniProt Q96PU8 1-341)
T1 sequence: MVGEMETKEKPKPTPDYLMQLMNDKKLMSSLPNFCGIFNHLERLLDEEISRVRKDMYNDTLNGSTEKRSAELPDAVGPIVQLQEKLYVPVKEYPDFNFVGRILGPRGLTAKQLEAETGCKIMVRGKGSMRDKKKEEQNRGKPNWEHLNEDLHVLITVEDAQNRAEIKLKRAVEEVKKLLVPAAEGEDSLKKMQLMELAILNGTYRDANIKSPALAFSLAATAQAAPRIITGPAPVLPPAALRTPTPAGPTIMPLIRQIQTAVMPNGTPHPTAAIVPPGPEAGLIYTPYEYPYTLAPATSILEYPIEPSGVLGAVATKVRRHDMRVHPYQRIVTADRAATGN
Test: EMSA; 50 fmol biotin-labelled probe; LightShift Chemiluminescent EMSA Kit per manufacturer; 50 fmol biotin-labelled probe, 4 ul QKI5; room temperature 20 min; native 8% PAGE; buffer, salt and pH not stated
Settings: protein: commercial; chain copies: 2; label: 5'-biotin (cold version unlabelled); blunt

B1: mutant CXCL2 promoter probe (dsDNA)
DNA 1: GAAAGGATGGAAAGCCATAACACTGTTAAC
DNA 2: GTTAACAGTGTTATGGCTTTCCATCCTTTC
  binding result: no binding

B2: wild-type CXCL2 promoter probe (dsDNA)
DNA 1: GAAAGGATGGGGGATTGCAACACTGTTAAC
DNA 2: GTTAACAGTGTTGCAATCCCCCATCCTTTC
  binding result: binds

Reference: PMC8518180, “A global screening identifies chromatin-enriched RNA-binding proteins and the transcriptional regulatory activity of QKI5 during monocytic differentiation”
